Data published in paper PMC6697748, “Ca^2+-regulated Ca^2+ channels with an RCK gating ring control plant symbiotic associations” (Nature Communications, 2019).

Target: the molecule itself
Experiment: crystal structure; Ca2+-bound state: protein purified with 1 mM CaCl2 in 50 mM Tris-HCl pH 8.0, 250 mM NaCl; crystals in 21% PEG 550 MME, 50 mM MgAc2, 100 mM Tris pH 8.2, 20 °C; space group I4, one subunit per asymmetric unit, tetramer by crystallographic fourfold; 1.6 Å

B1: LjCASTOR soluble domain (residues 312-853) (domain or fragment, Lotus japonicus, UniProt Q5H8A6 312-853, looked up)
chain: KGKSEVVEQNHTLILGWSDKLGSLLNQLAIANESLGGGTIAVMAERDKEDMELDIGKMEFDFKGTSVICRSGSPLILADLKKVSVSKARTIIVLAEDGNADQSDARALRTVLSLTGVKEGLRGHIVVEMSDLDNEVLVKLVGGDLVETVVAHDVIGRLMIQCARQPGLAQIWEDILGFENCEFYIKRWPQLDGMLFEDVLISFPAAIPCGIKVASYGGKIILNPDDSYVLQEGDEVLVIAEDDDTYAPAPLPMVRRGSLPKDFVYPKSPERILFCGWRRDMEDMITVLDASLAPDSELWMFNDVPEKEREKKLIDGGLDISRLENISLVNREGNAVIRRHLESLPLESFDSILILADESVEDSAIQADSRSLATLLLIRDIQARRLPYVAMASQTQGGNFSKGSWIGEMKQASDKTVIISEILDPRTKNLLSMSKISDYVLSNELVSMALAMVAEDRQINDVLEELFAEEGNEMHIRQADIYLREGEEMSFYEIMLRARQRREILIGYRLANAERAVINPPAKTGRRKWSLKDVFVVITEKE
notes: CASTOR ion channel from Lotus japonicus, soluble domain after the transmembrane region, residues 312-853; two tandem RCK domains (RCK1 320-552, linker 553-580, RCK2 581-853); Cloned into pQE60 with a C-terminal hexahistidine tag; no removal of the tag is described; A selenomethionine-substituted form was used for phasing only; Residues 699-726 have no electron density; also called LjCASTOR RCK …
In the case of B1, the “stoichiometry N” value is reported as 4.
